± gives the uncertainty stated by the source.
Test: self-splicing fitness, log relative to wild type (ln ratio); higher = more splicing; Tetrahymena group I intron in knt gene, E. coli kanamycin selection, DiMSum; sequences stand for … in CUCUCU…GGAGGGAAAAGUUAUCAGGCAUGCACCUGGUAGCUAGUCUUUAAACCAAUAGAUUGCAUCGGUUUAAAAGGCAAGACCGUCAAAUUGCGGGAAAGGGGUCAACAGCCGUUCAGUACCAAGUCUCAGGGGAAACUUUGAGAUGGCCUUGCAAAGGGUAUGGUAAUAAGCUGACGGACAUGGUCCUAACCACGCAGCCAAGUCCUAAGUCAACAGAUCUUCUGUUGAUAUGGAUGCAGUUCACAGACUAAAUGUCGGUCGGGGAAGAUGUAUUCUUCUCAUAAGAUAUAGUCGGACCUCUCCUUAAUGGGAGCUAGCGGAUGAAGUGAUGCAACACUGGAGCCGCUGGGAACUAAUUUGUAUGCGAAAGUAUAUUGAUUAGUUUUGGAGUACUCGUGGUCG
Outline: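 Fitness was computed with DiMSum as the error-weighted combination of replicate fold changes, kanamycin versus none, each normalised to wild type. The library randomised all eight intron nucleotides of the P1ex region, with the intron placed in the knt kanamycin-resistance gene on pET-22b(+) in E. coli BL21(DE3). Six replicate transformations were grown overnight at 37°C or 30°C on LB agar with or without 25 μg/mL kanamycin, plus 100 μg/mL carbenicillin, 50 μM IPTG and 0.2% rhamnose. Pooled colonies were amplicon-sequenced on an Illumina HiSeq 2500.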

| Sequence | self-splicing fitness (ln) (30 °C) | self-splicing fitness (ln) (37 °C) |
| --- | --- | --- |
| CGCGAGCAAUAUUACGAGAG | -2.69 ± 0.18 | -2.92 ± 0.31 |
| GAACAGCAAUAUUACGACUG | -1.45 ± 0.085 | 0.155 ± 0.1 |
| CGGUAGCAAUAUUACGUUCG | -2.19 ± 0.14 | -1.99 ± 0.24 |
| CUCGAGCAAUAUUACGUAAU |  | -1.42 ± 0.29 |
| GGACAGCAAUAUUACGCGAC | -2.27 ± 0.28 | -1.09 ± 0.24 |
| GUAAAGCAAUAUUACGGAUU | -0.675 ± 0.079 | -0.288 ± 0.1 |
| CAAUAGCAAUAUUACGGCCU | -2.69 ± 0.21 | -3.6 ± 0.39 |
| CGAUAGCAAUAUUACGUAAG | -0.163 ± 0.066 | 0.259 ± 0.082 |
| AGGCAGCAAUAUUACGCAGC | -4.21 ± 0.42 | -2.84 ± 0.31 |
| CGAGAGCAAUAUUACGCAAC | -1.2 ± 0.34 | -2.34 ± 0.35 |
| CUAUAGCAAUAUUACGUAGC | -4.05 ± 0.31 | -3.11 ± 0.43 |
| UAAUAGCAAUAUUACGACGG | -1.51 ± 0.11 | -0.463 ± 0.13 |
| AACCAGCAAUAUUACGUAAA | -1.13 ± 0.076 | -0.76 ± 0.084 |
| AAGAAGCAAUAUUACGAUCG | -1.23 ± 0.12 | -0.674 ± 0.14 |
| GUAUAGCAAUAUUACGCACA | -1.11 ± 0.13 | 0.279 ± 0.16 |
| CGCGAGCAAUAUUACGAGAA |  | -2.08 ± 0.34 |
| UAACAGCAAUAUUACGUAUA | -1.4 ± 0.062 | -0.86 ± 0.069 |
| GAAUAGCAAUAUUACGAGCC | -1.48 ± 0.17 | 0.00455 ± 0.17 |
| CACGAGCAAUAUUACGCCUG | -3.26 ± 0.23 | -2.38 ± 0.17 |
| CGAGAGCAAUAUUACGAAAA |  | -2.18 ± 0.37 |
| GGUUAGCAAUAUUACGUUCC | -1.45 ± 0.11 | -0.8 ± 0.12 |
| CACCAGCAAUAUUACGUUCC | -4.91 ± 0.41 | -2.45 ± 0.26 |
| UUUAAGCAAUAUUACGCUUU | -3.6 ± 0.35 | -2.95 ± 0.23 |
| AAGGAGCAAUAUUACGUUAA | -3.12 ± 0.25 | -1.69 ± 0.19 |
| AAUAAGCAAUAUUACGUGUU | -3.01 ± 0.097 | -2.58 ± 0.13 |
| GGCCAGCAAUAUUACGCCAG | -3.88 ± 0.37 | -1.59 ± 0.35 |

| Sequence | self-splicing fitness (ln) (30 °C) | self-splicing fitness (ln) (37 °C) |
| --- | --- | --- |
| GAUGAGCAAUAUUACGGAUG | -2.78 ± 0.19 | -2.89 ± 0.26 |
| AAAGAGCAAUAUUACGUCGA | -3.5 ± 0.27 | -2.09 ± 0.18 |
| AUCUAGCAAUAUUACGAGCA | -0.993 ± 0.18 | -0.654 ± 0.2 |
| AACGAGCAAUAUUACGAGGG | -3.03 ± 0.36 | -2.35 ± 0.29 |
| CUAAAGCAAUAUUACGCGAA | -3.71 ± 0.25 | -2.63 ± 0.36 |
| UAUAAGCAAUAUUACGAUGG | -1.62 ± 0.13 | -1.48 ± 0.2 |
| ACAAAGCAAUAUUACGUCAC | -4.13 ± 0.18 | -2.53 ± 0.16 |
| ACGUAGCAAUAUUACGCCCG | -0.224 ± 0.13 | -0.474 ± 0.17 |
| AGGCAGCAAUAUUACGUGCA | -1.01 ± 0.1 | -0.142 ± 0.14 |
| CAUUAGCAAUAUUACGCAUC | -2.71 ± 0.21 | -1.6 ± 0.27 |
| CACUAGCAAUAUUACGAUGU | -4.05 ± 0.37 | -1.63 ± 0.19 |
| GGCCAGCAAUAUUACGCCAU | -3.57 ± 0.33 | -2.12 ± 0.28 |
| UCGAAGCAAUAUUACGAUAA | -2.17 ± 0.13 | -1.13 ± 0.13 |
| CUAAAGCAAUAUUACGGAAA | -4.24 ± 0.37 | -2.44 ± 0.35 |
| GCUCAGCAAUAUUACGCAUA | -1.48 ± 0.18 | 0.283 ± 0.17 |
| GUGUAGCAAUAUUACGAGGG | -3.38 ± 0.44 | -2.99 ± 0.47 |
| GAGCAGCAAUAUUACGGGAU | -3.27 ± 0.27 | -3.1 ± 0.23 |
| CAACAGCAAUAUUACGCUAA | -2.36 ± 0.098 | -2.11 ± 0.12 |
| UAUGAGCAAUAUUACGAGUG | -1.52 ± 0.095 | -0.43 ± 0.11 |
| CGGUAGCAAUAUUACGAUGU | -0.932 ± 0.093 | -0.763 ± 0.15 |
| GGCUAGCAAUAUUACGUCGU | 0.26 ± 0.075 | 0.153 ± 0.092 |
| GCUUAGCAAUAUUACGUCGC | -1.72 ± 0.19 | -0.764 ± 0.28 |
| GUUAAGCAAUAUUACGCUAU |  | -0.862 ± 0.32 |
| CUAGAGCAAUAUUACGAUGC | -2.31 ± 0.42 | -1.94 ± 0.43 |
| GAAUAGCAAUAUUACGUCAG | -3.69 ± 0.31 | -3.11 ± 0.4 |
| UCAAAGCAAUAUUACGGUCA | -0.88 ± 0.1 | -0.6 ± 0.1 |

| Sequence | self-splicing fitness (ln) (30 °C) | self-splicing fitness (ln) (37 °C) |
| --- | --- | --- |
| GCAAAGCAAUAUUACGAUCG | -1.52 ± 0.067 | -0.0765 ± 0.091 |
| UCUCAGCAAUAUUACGUAAA | -1.82 ± 0.15 | -1.04 ± 0.2 |
| CAAAAGCAAUAUUACGUGCU | -4.33 ± 0.2 | -2.27 ± 0.15 |
| CUAAAGCAAUAUUACGAGUU | -2.84 ± 0.32 | -1.85 ± 0.26 |
| CGAAAGCAAUAUUACGUUGU | -3.63 ± 0.15 | -2.7 ± 0.15 |
| AAACAGCAAUAUUACGCGUG | -1.42 ± 0.052 | -0.0443 ± 0.066 |
| GUAGAGCAAUAUUACGUACU | -2.23 ± 0.24 | -1.92 ± 0.24 |
| UGUUAGCAAUAUUACGGCUG | 0.0825 ± 0.08 | 0.196 ± 0.12 |
| UGCUAGCAAUAUUACGUGUC | -3.7 ± 0.42 | -2.72 ± 0.38 |
| GCUGAGCAAUAUUACGGUUG | -3.64 ± 0.31 | -2.67 ± 0.35 |
| UCUUAGCAAUAUUACGGGGC | -3.82 ± 0.3 | -3.03 ± 0.27 |
| UAAAAGCAAUAUUACGUUUU | -3.26 ± 0.13 | -2.82 ± 0.16 |
| GAAGAGCAAUAUUACGUCUA | -1.86 ± 0.13 | -1.01 ± 0.13 |
| CGGAAGCAAUAUUACGCCUC | -3.04 ± 0.27 | -2.89 ± 0.4 |
| UUAGAGCAAUAUUACGGGUG | -3.1 ± 0.33 | -0.89 ± 0.2 |
| GAUAAGCAAUAUUACGAUGG | -3.06 ± 0.31 | -0.54 ± 0.21 |
| CCCCAGCAAUAUUACGUCGC | -3.65 ± 0.18 | -2.34 ± 0.2 |
| GCAAAGCAAUAUUACGCUAG | -2.78 ± 0.088 | -2.51 ± 0.084 |
| GUUUAGCAAUAUUACGUUCA | -0.239 ± 0.15 | -0.156 ± 0.13 |
| GUCGAGCAAUAUUACGCAUU | -2.45 ± 0.27 | -0.95 ± 0.25 |
| ACCCAGCAAUAUUACGAAAC | -2.77 ± 0.12 | -1.04 ± 0.15 |
| GGUAAGCAAUAUUACGCGUG | -2.42 ± 0.18 | -0.242 ± 0.15 |
| GCCGAGCAAUAUUACGCGAC | -2.44 ± 0.21 | -2.26 ± 0.35 |
| GAGGAGCAAUAUUACGCAGC |  | -1.04 ± 0.44 |

— the supplement of paper PMC7877785
